In the DeepSol protein solubility set:

test: soluble on expression in E. coli; label from the status in PepcDB or PDB records

| Sequence | soluble on expression in E. coli |
| --- | --- |
| MVHYKLSYFPIRFAGEIPRQILAYAGQKFEDHRIPQADWPALKSTMPFGTLPVLYQDGKPLGQSHAISRFLARQFGINGRCPWEEAQVNAIADQFKDYLNDIRSYNLVKMGFAQGDADALYKDTFLPNFKKNYQFFTNFLKASGSGFLIGDSVTWVDLLIAQHTSDLLSDSGSVFAASQSLLDEFPELKAHQKKIHSIPNIKKWVETRPVTPF | not soluble |
| MVIERSCMGDLDKNPAVKAMVVFRKAMRTIDAQVAPSYKNNGLTQTQFAVLDVLYAKGEMTISRLIASILATSGNMTVVIKNMERNGWIYRSPNPDDRRASVVGLTEVGKQLIQKALPDHIAMVEAAFSVMTEEEQLVLIDLLKKFKSL | not soluble |
| MVIHCKMFNNQRKTLAKEYHELYMNNNTETRKNKHLNERERYAIELYLKEKYTVTEIAKRLGRHRRTIEREITRGTIYLQNSDLTYRKEYCADVAQRRYVENGKNKGPRLKIGNDHELVRYIESKIINEKYSPDAVIGQIKAKGLKFKTSICTKTLYNYIDRGDVFLRLTNKYLPVKKDGKKRIYQRVKKIALKNLKGSSIEERPKEVNDRKEYGHWEMDCVVGRKNSAAVLLVLSERKTREEIILKLPDKTQESVIKAIDELERKYRRKFREKFKTITVDNGTEFLDYRGIEKSKTEPGKDRTKVYYAHPYSSWERGTNENINKLIRRFIPKGTDISKVSKAKIKSIERWINEYPRRMFGYRSAIEMAV | not soluble |
| MVIINTAAYHFVSITQPQTLADQIRAHGEIAGLKGTVLIANEGINLFLAGEKEAINAFYAWLCADVRFAALHVKYSVSAYKPFARFKVKVRPEIISFRRGDISPLQVRAPGVSAHTLRDWLRRGCDDNGRRLVMLDARNQQEIAYGTFSGAMTLPITKFTGFPGALAHYRDLLSDATVVSFCTGGIRCEKAVLWMRADGMDNVLQLEGGILGYFEQVGGEGYDGRCFVFDKRVALDPQLRPLYDMRVVASFARSEISLEHHHHHH | not soluble |
| MVILMRAPIVEVFSSIQGEGLLVGRRQIFVRFAGCNLNCSYCDTPESRDPSAGRLFTAPELTEIIEGLITPDFHSISITGGEPLLYPDFITELLEESPHRTLLETNGSLPSNAERIAHLFDYASVDIKIAEHFSDNLRSGTTESDISSPGDLIDREIQVINILISRGVNTYCKVVVMPTTGAGYIGALAERLLECVDEPERLPLVIQPCSPPEQWAQNTPRLLEMSQEAGKYMDVYVIPQMHRALGLR | soluble |
| MVIMVNTEYIPGKRIVKVFGTIWGITVRSRGLGGNLVAGLRSLAGGEIKEYTKMLSDARNTAMERLQSAAEQIGANAVINVRFDSSDIGQVMTEIVAYGTAVLVE | soluble |
| MVISLGDDITTVLKTVQQTLFALRDEHEAATRILEANLINSDSSEPSLPSEKMGLIDESLGKVMDGGDEASLLIMMDKLMQSYDVQLSKNHESIRLLRQENTWLLDELTTTQRKLQESERTVAHLEEERDHYKFQDSMNYLNSDFQHTTSVDATPMMVDTLQELGFGPEEEDQNNNQADQGCRSSSFSNPISNDYQLPTRLQTLQNLVIQYMEQGRFEVAIPLCKQALEDVVKVHGNVHLDVATMLNVLAIVYRNQENFKDAAIYLEKALSIRVQCCGENHHSVAATLNNLAIAYGKRGKYKESEPLCKRALEIRKNLLGPNHPDVAKQLTNLGIVTQQLEKYEETENYFKQALSIYNRAFPENHQNVIKTKNQLASVFLKQGKYQEAEEMYKNILSKVAITGNKPIWRIAEDREERQRNGIPKVDDESFNVNPTTVMDSNVMSTIKNLAAVYRKQGKEEAAGTLEEALGAKKQINGGADHTNSTASSVETSSAVAINPAQSGIKKRIMHFVGLNF | not soluble |
| MVKANVQAIDQLDAEQLGSGMVITDRQLSIVAVSEPTPRWLGFAKNELVGRPVGVLFSAEWSAALLDGIAEAVKKDGCWQGEARHVAKSGKAYTSWMNVYRLSGSEGEWLVWHFVEQTAMPPADRPTTSELLGVIYDSAPFAVVPVAADGTVQDWGLSAERLFGRRKEEAVGRPIWSLFRCGSQTWLPFPPKEQRCGEGMVQRRDGTSANVSYTVIPMLQADGYIVLVEDETKQKQKEAERRRQVELAKKIQQNLLTPLIQNEAVTMDAVYIPSDDLSGDIYACYQIDLYRYGVIVIDVMGHGISSALVSMLLRSLLRGLIVRVIDPVSVASELEKHVQTLFPDEANDIRHLFSMIYLVIDTKERKIEYTNAGHPAGLLVFDDGSVHELDKGGLAIGSPFSLPFEKGVIHYDKRARLLLYTDGILEEIDPSILQSIEKIRSCTQMCRHLPDKRFLERLISQGPPLVSPSDDICLLSITVHG | not soluble |
| MVKERRTELVEGFRHSVPYINAHRGKTFVIMLGGEAIEHENFSNIVNDIGLLHSLGIRLVVVYGARPQIDANLAEHHHEPVYHKQTRVTDAKTLELVKQAAGMLQLEITARLSMSLNNTPLQGAHINVVSGNFIIAQPLGVDDGVDYCHSGRIRRIDEEAIHRQLDSGAIVLMGPVAVSVTGESFNLTSEEIATQLAIKLKAEKMIGFCSSQGVYNQAGEIVSELFPNEAQARVEELEADEDYNSGTVRFLRGAVKACRSGVRRCHLISYQENGALLQELFSRDGIGTQIVMESAEQIRRATINDIGGILELISPLEQQGILVRRSREQLEMEIDKFTIIQRDNTTIACAALYPFPEEKIGEMACVAVHPDYRSSSRGEVLLERIAAQARQMGLSKLFVLTTRSIHWFQERGFTPVDIDLLPESKKQMYNYQRRSKVLMADLA | not soluble |
| MVKIAIITYSTYGHIDVLAQAVKKGVEAAGGKADIYRVEETLPDEVLTKMNAPQKPEDIPVATEKTLLEYDAFLFGVPTRFGNLPAQWSAFWDKTGGLWAKGSLNGKAAGIFVSTSSYGGGQESTVKACLSYLAHHGIIFLPLGYKNSFAELASIEEVHGGSPWGAGTLAGPDGSRTASPLELRIAEIQGKTFYETAKKLFPAKEAKPSTEKKTTTSDAAKRQTKPAAATTAEKKEDKGLLSCCTVM | soluble |
| MVKPKYSRVLIKLSGEALAGEKGVGIDIPTVQTIAQEIKEVHDSGIEIALVIGGGNLWRGEPASKAGMDRVQADYTGMLGTVMNALVMADALQHAGVDTRVQTAIAMQQVAEPYIRGRALRHLQKGRIVIFAAGVGSPYFSTDTTSALRAAEIEADAILMAKNGVDGVYNDDPRKNADAIKFNELTHMEVLKRGLKIMDSTASSLSMDNDIDLVVFNLNESGNIKRVIFGEQIGTTVTSRISDSEMAGDPLEHHHHHH | soluble |
| MVKRRNLLHFNNGARSERDLGDLVTKVFEKAAKKEPQPLYTFSLPLLSVQDEIRVYCKKKNIKIGYDTLFMEITFSADREAVDELIKHFFTENKLYLRGRFYLSAAVV | not soluble |
| MVKTMKWARIGDIIVLNREADDPEALLEMEGVRSVIRVEGIHGPLRRPRVRVLAGSGTETVHKENGCLFRIDLSRVMWSRGNINERARIPSLVEEGETVVDMFAGIGYFSIPVAVHSDPGRVYSVELNPDSFELLKSNITLNRVEGIIEPILGDCREVAPELDADRVIMGYVGRTHHFLDAAMECVRDGGVIHYHETAPEAIRFSRPLRRIERAAHPRRVSLLDKRVIKKYSPGVWHVVLDVRIH | soluble |
| MVLAIAGCIEAYRTGHDARHGPRVPWERRLSEEDYLARLAAGSVSYSRDVQPILDSRCVVCHGCYDAPCQLKLESFDGLERGASKTPVYDTTRLQATPPTRLFIDAENVQGWRSKGFFPVLNERGDSPEANLRDSLLFRMLELKKAHPLPVSGALPDTFDFRLDRTLNCPTVEEFDDFEDDHPEWGMPYGFPGLSEREHDIVVKWLREGGFAPPPAPVSAEAASAVAQWEAFLNGSSPKERLFARYVYEHLFLGHLHFRGLAPREFFRLVRSRTPPGEPIREIATTRPYDSPGPGEFYYRLRPVQQSIVAKTHMVYELDDARMRRYRELFLDPEYAVDRLPGYAAADAANPFKTFVAIPPRSRYRFLLDDAHFFFSGFMKGSVCRGQAALNVIQDRFWVAFTHPDADPVSNDAQFLADQAERLRLPAEKENSPGIGDIWYTYRALEEDYQAAKAAWLRAHGERGGTTLADLWDGDGDNRDALLTVFRHFDSASVERGLVGDTPLTGWVVDYPLLERIHYLLVAGFDVFGNVGHQLATRLYMDFMRMEAENNFLRFLPSSIRQAERARWYKGIGARINDLWQSPRWGMGGETLIDYRTGNPKQEFFDRVRAGFGKAAGRPDPFTGCGVEVEGCGEGGEPALPPVQASVERELRRLAFARGGGVAFLPELSYLRIRTGSGGAEDGWIYSLVKNTALENVSMLFLEEIRRTPADDTVTLVRGIVGSYPNFFFDLDAAEVGEFVDAILSVDGSKAFGRRLVERFGVRRSNPAFWRISDWFNRRYLEASPVTAGWLDLSRYDNPLEHHHHHH | not soluble |
| MVLAPFFEKAPSLIIAPDGSVLFECICNANPQPTVKWFLKDKELTGDRYVSKIKKMVGKFTVTLHIKNPTQEDQGVYKVTATNTHGSHSVEQQYIYKCTGKEVFKTLD | soluble |
| MVLFEKPGKENTRKTLEIAIQKASELSSKKLLIASATGYSARMALEMIPEDMKLVVVTHHAGFEEPDTQEFDEELRKLLKEKGHDVLTATHALSAGERSLRRKFGGIYPLEIIANTLRMFSEGVKVGVEITLMAADAGLVKTSELVVACGGTESGLDSAIVVKPANSPNLFDLKITEILCKPLIS | soluble |
| MVLIIVRTLLMRISIKMIPLAYLNHFRKEHMKSRIHWAALGLLAAFAAQAETVTIEHRLGKTTLEQKPQRVVVIGVGALDAIDSFGIEPVAVSKFDGTPDYLAKYKSDKYPSAGSLFEPDFETIYTQKPDLIVIGPRASKSYDELSKIAPTIVFAAEADQGYWESTQQQWRNLGKVFAIEPAVEAKIEQVDAQFKSIMQYNQQHKSDAMLVMSSGGNLTTFGANSRFSSVYKDFGFSETVPVSKESSHGDLISFEYIREHNPKTLLVVDRDKVVTKGETNIRQTFENDLVKATTAYKNGHIAYLDVNAWYIAISGVKATEQMVADMKASVGMQ | not soluble |
| MVLLSVFLATGCTDTEQQPDTTTITEPDTTTTAQSETSKLIVSTTTSLEDTGLLEEIEAAFEDKYPGVDVLVISGGTGIAIQYGERGDADILLTHDKSREEEFVNNGFGTNRTEIAYNYFWIVGPENDPAGINGLNATEAFTRIMEEGQNDSDQVKFASRGDDSGTHAREKKIWESTGVSYGEINSSGEWYIESGRGMGETLLLSNEQNAYTLTDSGTFLAYTNEGRIQIVPIVTAGDELLNVYAAMPVNPEKHPNVNYEGAQNFVDFLVSSEGQEIIGNFGREQYGEPLFTPISEGLPS | not soluble |
| MVLPPQNRLCNEVCLEAGQSPNSNELYLNSSELLKTELNNDINLCLVDFCERHNIDYRGMVNRLVTNNMYFFYIWGKYALSKA | not soluble |
| MVLVELFGFGPHLMVDGYEANPDRLRDAELIRRVLNELPEEMEMTKVLPPFVYSYGPGGEDGVTGVVIIAESHIAIHTFPKKRFLSVDIFSCKAFDMAKALKKLAEVFEIRRYETYMINRGKEFPKDPELARQIVLGEREYLEARVG | soluble |
| MVMPESHIHNIPMEQCVLVALMTFALSYELIAQDLDEGCFYPERHKQIYNAIVELANENQPYDVVMVEQRLKSKNLLHVLGGEQYLKIMLAEAPSSFHSMEPYITQLKKLKAHRQVEWLGQRISSMAQDTTQPDVFAEAENILGQVDNQEQSDQGMSFEAALDMALTEMIEKAEAKDKQQFTGVKFNLKHLDELLGTVQKGHFCVVGGRPGSGKSTLAQMLALDTASSFGKGVLFISAEMDQSTLANRMISALGLIPYHNIHNAELYNGLMKDYADAKAAYQRLPIWIQPKQKPSLSEVRSYARRAKRRYKELGCIIVDYLQLLRDPSKKDRFQEVSSISRELKSMAKEFECPVIALVQLNREAEKGKRPKASDIKESGQIEQDADQIILVNPLTDPEDSTKPMGITELIVVKNRHGKRGAVRVLDYLETCRFRSVEEQAEP | not soluble |
